B1: Spectrin alpha chain, erythrocytic 1, residues 979 to 1036; numbered along this chain, P02549 (parent)
chain: EQRVMALYDFQARSPREVTMKKGDVLTLLSSINKDWWKVEAADHQGIVPAVYVRRLAH

Variants of: B1
Experiment: abundance fitness (aPCA) (normalised: wild type 0, dead -1); higher = more abundant; growth selection in yeast, the domain comes from the species named
Conditions: Homo sapiens

Abundance fitness of substitutions, site by site:
E17: W -0.8, C -0.911, A -0.64, N -0.693, L -0.802, V -0.9, H -0.63, F -0.594, D -0.738, K -0.403
H44: P -0.95, K 0.555, A -0.051, Y -0.804, L -0.692
R16: S 0.579
D9: E -1.01, A -0.166, S -0.754, L -0.566, W -1.02, N -0.651
A42: T -0.503, N 0.315, S -0.133, H -0.031, E -0.089, F -0.002
Y52: F -0.367, S 0.155, H -0.368, E -0.165, W -0.978, G -0.659, V -0.682
W36: K -0.675
A41: N -0.024, G 0.154, C 0.001, K 0.033, E -0.851, S 0.232, Q -0.287
V39: G -0.705, P -0.319, F -0.658, S -0.886
V51: L -0.083, W -0.18, S 0.579, Y -0.242, K 0.525, R 0.643, E -0.31, M 0.149, F 0.246
S14: L -0.866, N 0.014, R -0.364, C -0.571, H -0.292, A -0.743, V -0.677, I -0.276, T -0.069, G -0.358
R13: K -0.414, Q -0.305, S -0.221, C -0.316, W -0.738
Y8: F 0.772
K34: H 0.231, Q -0.229, L 0.207, A -0.292, P -0.015, R -0.168, M -0.514, T 0.023
P49: K -0.47, V -0.797, L -0.887, Q -0.898, W -0.792, N -0.694, E -0.854, Y -0.72
Q2: V -0.384, D 0.855, P -0.874, A -0.002, L -0.573, S -0.822, G -0.187, E 0.108, T -0.614
T19: S 0.249, L -0.369, P -0.613
M20: I -0.554, G -0.829, N -0.209, R -0.963, C -0.726, K -0.574, A -0.791, Y -0.867, T -0.877, Q -0.236, E -0.726
E40: P -0.744, R 0.217, L -0.652, S -0.187, D -0.388, K 0.29, Q 0.188
S31: I 0.495, Y -0.252, E 0.518, D 0.673, K -0.179, Q 0.225, R -0.282, C -0.157, G -0.34, F -0.47
L28: S -0.726, W -0.536, I 0.024
R54: M -0.518, D 0.095, L -0.963, P -0.292, A -0.351, E -0.254, V -0.53, S -0.588, N -0.668, H 0.83, W -0.668, K 0.257
K38: R -0.033, V 0.303, A -0.258, T 0.373, C 0.284, Q 0.041, W -0.168, M 0.083, Y -0.311, G -0.832
N33: G -0.447, R -0.739, Q -0.494, W -0.822
Q45: E 0.039, R -0.037, C -0.103, I 0.027, P -0.565, W -0.889, T 0.516, V 0.1
H58: Y 0.141, P 0.358

— the Human Domainome abundance scans (Beltran et al. 2025)
